This note sets out measurements from the RNAGym collection of RNA variant scans (doi:10.7554/elife.80360).

First the molecules themselves.
B1: Hammerhead Ribozyme (parent)
chain: ACCGGAUGUGCUUUCCGGUCUGAUGAGUCCGUGAGGACGAAACAG

Variants of B1 are the subject of this data set. As to the kind of experiment: self-cleavage, relative activity (ratio to wild type); higher = more cleavage; co-transcriptional.
Turning to ACCGGAUGUGCUUUCCGGUCUGAUGAGUCCGUGAGGACGAAAUAG [C43U], the self-cleavage is 0.608.

For the variant ACCUGAUGUGCUUUCCGGUCUGAUGAGUCCGUGAGGACGUAACAG [G4U A40U], the self-cleavage worked out at 0.297.

For the variant ACCGGAUGUGCUUUCCGGUCAGCUGAGUCCGUGAGGACGAAACAG [U21A A23C], the self-cleavage stood at 0.474.

For the variant ACCGGAUGUACUUUCCGGUCUGAUGAGUCCGUGAGGACGGAACAG [G10A A40G], the self-cleavage is 0.346.

ACCGGACUUGCUUUCCGGUCUGAUGAGUCCGUGAGGACGAAACAG [U7C G8U]: the self-cleavage came out at 1.38.

Take ACCGGAUGUGCUUUCCGGUCUGAUGAGUUCGUGACGACGAAACAG [C29U G35C]: the self-cleavage amounted to 0.778.

For the variant ACCGGGUGUGCUUUCCGGUCUGAUGAGUCCGUGAGGACGAAUCAG [A6G A42U], the self-cleavage was determined as 0.219.

Take ACCGGAUGUUCUUUCCGGUCUGAUGAGUCCGUGAGGGCGAAACAG [G10U A37G]: the self-cleavage is 0.877.

As to ACCAGAUGUGUUUUCCGGUCUGAUGAGUCCGUGAGGACGAAACAG [G4A C11U], the self-cleavage came out at 0.389.

As to ACCGGCUGUGCUUUCCGGUCUGAUGAGUGCGUGAGGACGAAACAG [A6C C29G], the self-cleavage worked out at 0.482.

On to ACUGGAUGUGCUUUCCGGUGUGAUGAGUCCGUGAGGACGAAACAG [C3U C20G], for which the self-cleavage amounted to 0.306.

As for ACCGGAUGUGCUUUCCGGUCUGAUGAGUCCGUGACGAGGAAACAG [G35C C38G], the self-cleavage came to 0.376.

For ACUUGAUGUGCUUUCCGGUCUGAUGAGUCCGUGAGGACGAAACAG [C3U G4U], the self-cleavage was determined as 0.302.

Turning to ACCGGAUAUGGUUUCCGGUCUGAUGAGUCCGUGAGGACGAAACAG [G8A C11G], the self-cleavage worked out at 1.18.

Regarding ACCGCAUGUGCUUUCCGGUCUGAUGAGUCCGUGAGGGCGAAACAG [G5C A37G], the self-cleavage was 0.44.

As for ACCGGAUGUCCUUUCCGGUCUGAUGACUCCGUGAGGACGAAACAG [G10C G27C], the self-cleavage turned out to be 0.994.

Take ACCGGAUGUGGUUUCCGGUCUGAUGUGUCCGUGAGGACGAAACAG [C11G A26U]: the self-cleavage is 1.05.

With ACCGGAUGUGCUUUCCGGUCUGACGAGUCCGAGAGGACGAAACAG [U24C U32A], the self-cleavage was 1.18.

For ACCGGAUGUGCUUUCCGGUCCGAUGAGUCCGUGAGGACGUAACAG [U21C A40U], the self-cleavage worked out at 0.274.

ACCGGAUGUGCUUUCCCGUCUGAUGAGUCCGUGAGGACGAAAUAG [G17C C43U]: the self-cleavage was determined as 0.404.

Take ACCGGAUGUGCUUUCCGGCCUGAUGAGUCCGUGAGGACGAAUCAG [U19C A42U]: the self-cleavage stood at 0.212.

Consider ACCGGAUGUGCUUUCCGGUCUGAUGGGUCCGUGAGGACGAAACCG [A26G A44C], for which the self-cleavage was 0.266.

On to CCCGCAUGUGCUUUCCGGUCUGAUGAGUCCGUGAGGACGAAACAG [A1C G5C], for which the self-cleavage amounted to 0.286.

For ACCGGAUGUGCUUUCCGGUCUGAUGAGUCCGUGAGAACGGAACAG [G36A A40G], the self-cleavage is 0.289.

In the case of ACCGGAUGUGCUUUCCGGUCUGAUUCGUCCGUGAGGACGAAACAG [G25U A26C], the self-cleavage worked out at 0.288.

ACCGGAUGUGCUUUCCGGUCGGAAGAGUCCGUGAGGACGAAACAG [U21G U24A]: the self-cleavage worked out at 0.814.

For CCCGGAUGUGCUUUCCGGGCUGAUGAGUCCGUGAGGACGAAACAG [A1C U19G], the self-cleavage was found to be 1.12.

As for ACCGGAUGUGGUUUCCGGUCUGAUGAGUCCGUGAGGAAGAAACAG [C11G C38A], the self-cleavage is 0.718.

Consider ACCGGAUGUGCUUUCCGGUCUGAUGAGGCCUUGAGGACGAAACAG [U28G G31U], for which the self-cleavage was found to be 0.932.

ACCGGAUGUGCUUUCCGGUCUGUUGAGUCCGAGAGGACGAAACAG [A23U U32A]: the self-cleavage was determined as 0.376.

Consider ACCGGAUGUGCUUUCCGGUCUGAUGAGUCCCAGAGGACGAAACAG [G31C U32A], for which the self-cleavage worked out at 0.908.

In the case of ACCGGAUGUGCUUUCCGGUCUGUUGAGUCCGUGAGGAAGAAACAG [A23U C38A], the self-cleavage was found to be 0.381.

In the case of ACCGGAUGUGCUUUCCGGUCUGAUGAGUCCGUGAGGACGACAAAG [A41C C43A], the self-cleavage is 0.361.

Turning to ACCGGAUGUGAUUUCCGGUCUGAUGCGUCCGUGAGGACGAAACAG [C11A A26C], the self-cleavage came to 0.725.

For ACCGGAUGUGCUUUCCGGUCUGCUGAGUCCCUGAGGACGAAACAG [A23C G31C], the self-cleavage came out at 0.533.

Regarding ACCGGAUGUGGUUUCCGGUUUGAUGAGUCCGUGAGGACGAAACAG [C11G C20U], the self-cleavage was 0.695.

For ACCGGAUGUGCUUUCCGGUCUGAUCAGUCCGUGAGGACGGAACAG [G25C A40G], the self-cleavage stood at 0.447.

With ACCGGAUGUGCUUCCCGGUCUGAUGAGUCCGUGAGGAUGAAACAG [U14C C38U], the self-cleavage is 1.15.

Take ACCGGAUGUGCUUUCACGUCUGAUGAGUCCGUGAGGACGAAACAG [C16A G17C]: the self-cleavage was determined as 0.386.

Consider UCCGGAUGUGCUUUCCGGUCUGAUGAGUUCGUGAGGACGAAACAG [A1U C29U], for which the self-cleavage came out at 0.595.

Regarding ACCGGAUGUGCUUUCCGGUCUGAUGAGGCCGUGAGGUCGAAACAG [U28G A37U], the self-cleavage is 0.843.

With ACCGGAUGUGCUUUCCGGUCUGAUGAGUCAGUGAGGAGGAAACAG [C30A C38G], the self-cleavage was 0.48.

As to ACCGGAUGUGCGUUCCGGUCUGGUGAGUCCGUGAGGACGAAACAG [U12G A23G], the self-cleavage was determined as 0.407.

As for ACCGUAUGUGCUUUCAGGUCUGAUGAGUCCGUGAGGACGAAACAG [G5U C16A], the self-cleavage amounted to 1.11.

Regarding ACCGGAUGUGCUUUCCGGUCUGAUGAGACCGUGAGUACGAAACAG [U28A G36U], the self-cleavage came to 0.438.

Regarding ACCGGAUGUGCUUUCCGGUCUGAUGAGUCCGGGAGGACGAAUCAG [U32G A42U], the self-cleavage came to 0.375.

Consider ACCGGAUGUGCUUUCCGGUCAGAUGAGUCCGUGAGAACGAAACAG [U21A G36A], for which the self-cleavage was found to be 0.41.

As for ACCGGAUGUGCUUUCCGGUGUGAUGAGUCCGUGAGGACGUAACAG [C20G A40U], the self-cleavage was determined as 0.355.

With CCCGGAUGUGCUUUCCGGUCUGAUGAGGCCGUGAGGACGAAACAG [A1C U28G], the self-cleavage came out at 0.302.

On to ACCGGAUGUGCUUUCCAGUCUGAUGAGUCCGAGAGGACGAAACAG [G17A U32A], for which the self-cleavage is 0.62.

In the case of ACCGUAUGUGCUUUCCGGUCUGAUGAGUCCGUCAGGACGAAACAG [G5U G33C], the self-cleavage was determined as 0.813.

As for ACCGGAUGUCCUUUCCGGUCUGAUGAGUCCGUGAGGACGAAAAAG [G10C C43A], the self-cleavage was 0.354.

Take ACCGGAAGUGGUUUCCGGUCUGAUGAGUCCGUGAGGACGAAACAG [U7A C11G]: the self-cleavage is 1.52.

For the variant ACCGGAUGUGCUUUCCGGUCUGAUGAGUCCGUGAUAACGAAACAG [G35U G36A], the self-cleavage is 0.525.

On to ACCGGAUGUGCUUUCCGGUCUGAUGAGUCCCUGAGGACGACACAG [G31C A41C], for which the self-cleavage came to 0.306.

Take ACCGGAUGUGCUUUCCGGUCUGAUGAGUCCGUGAGGAUGAAACAA [C38U G45A]: the self-cleavage was found to be 0.689.

Turning to ACCGGAUGUGCUUACCGGUCUGAUGAGUCCGUGAGGACGAAACAU [U14A G45U], the self-cleavage was found to be 0.715.
